Data reported in US20120316071A1 (published 2012).

Tests used:
[1] = target: T1, Recombinant Human DLL4 (R&D Systems Cat#1506-D4/CF) (human, UniProt Q9NR61 27-524); experiment: ELISA on coated DLL4, 100 nM Fab
T1 construct: Bought recombinant human DLL4; also called delta-like protein 4; rHuman DLL4

[2] = target: T1, Recombinant Human DLL4 (R&D Systems …); experiment: ECL (MSD) binding assay, immobilised DLL4, 10 nM Fab;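 further: fab binding read as electrochemiluminescence via a TAG-labelled detection antibody, 1 h incubations at 20 °C, antigen signal compared with each well's blank, ratio of at least 4 scored as binder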
[3] = target: T2, Recombinant Human DLL4 (delta-like protein 4) (human, UniProt Q9NR61 27-524); experiment: ELISA on coated DLL4, Fab at 25 nM (2-fold serial dilution)
T2 construct: also called rHuman DLL4; Delta-like 4

[4] = target: T2, Recombinant Human DLL4 (delta-like …); experiment: ELISA on coated DLL4, Fab at 50 nM (2-fold serial dilution)
[5] = target: T2, Recombinant Human DLL4 (delta-like …); experiment: ELISA on coated DLL4, Fab at 100 nM (2-fold serial dilution)
[6] = target: T2, Recombinant Human DLL4 (delta-like …); experiment: ELISA on coated DLL4, Fab at 12.5 nM (2-fold serial dilution)
[7] = target: T2, Recombinant Human DLL4 (delta-like …); experiment: ELISA on coated DLL4, Fab at 6.25 nM (2-fold serial dilution)
[8] = target: T2, Recombinant Human DLL4 (delta-like …); experiment: ELISA on coated DLL4, Fab at 3.125 nM (2-fold serial dilution)

ELISA Signal [100 nM Fab] [1]	ECL Signal [10 nM Fab] [2]	ELISA signal [3]	ELISA signal [4]	ELISA signal [5]	ELISA signal [6]	ELISA signal [7]	ELISA signal [8]	Binder
0.02	61700	–	–	–	–	–	–	Fab VH5-51_IGHD5-18*01>3_IGHJ4*01 G100K/G104T (H:KT) & V3-4_IGLJ1*01 S96M (Fab, V domains shown, Fab format: CH1 with His6 and Flag tags, and lambda CL, from the vectors; also called G100K/G104T & S96M) VH: EVQLVQSGAEVKKPGESLKISCKGSGYSFTSYWIGWVRQMPGKGLEWMGIIYPGDSDTRYSPSFQGQVTISADKSISTAYLQWSSLKASDTAMYYCARRKYSYTYDYFDYWGQGTLVTVSS VL: QTVVTQEPSFSVSPGGTVTLTCGLSSGSVSTSYYPSWYQQTPGQAPRTLIYSTNTRSSGVPDRFSGSILGNKAALTITGAQADDESDYYCVLYMGMGISYVFGTGTKVTVL
0.02	57000	–	–	–	–	–	–	Fab VH5-51_IGHD5-18*01>3_IGHJ4*01 G100K/G104T (H:KT) & V3-4_IGLJ1*01 S96E (Fab, V domains shown, Fab format: CH1 with His6 and Flag tags, and lambda CL, from the vectors; also called G100K/G104T & S96E) VH: EVQLVQSGAEVKKPGESLKISCKGSGYSFTSYWIGWVRQMPGKGLEWMGIIYPGDSDTRYSPSFQGQVTISADKSISTAYLQWSSLKASDTAMYYCARRKYSYTYDYFDYWGQGTLVTVSS VL: QTVVTQEPSFSVSPGGTVTLTCGLSSGSVSTSYYPSWYQQTPGQAPRTLIYSTNTRSSGVPDRFSGSILGNKAALTITGAQADDESDYYCVLYMGEGISYVFGTGTKVTVL
0.02	54300	–	–	–	–	–	–	Fab VH5-51_IGHD5-18*01>3_IGHJ4*01 G100K/G104T (H:KT) & V3-4_IGLJ1*01 S96R (Fab, V domains shown, Fab format: CH1 with His6 and Flag tags, and lambda CL, from the vectors; also called G100K/G104T & S96R) VH: EVQLVQSGAEVKKPGESLKISCKGSGYSFTSYWIGWVRQMPGKGLEWMGIIYPGDSDTRYSPSFQGQVTISADKSISTAYLQWSSLKASDTAMYYCARRKYSYTYDYFDYWGQGTLVTVSS VL: QTVVTQEPSFSVSPGGTVTLTCGLSSGSVSTSYYPSWYQQTPGQAPRTLIYSTNTRSSGVPDRFSGSILGNKAALTITGAQADDESDYYCVLYMGRGISYVFGTGTKVTVL
–	–	0.227	0.194	0.209	0.215	0.207	0.216	Fab VH5-51_IGHD5-18*01>3_IGHJ4*01 G100K/G104T (KT) & V3-4_IGLJ1*01 S52G (Fab, V domains shown, Fab; also called H:KT & L:S52G) VH: EVQLVQSGAEVKKPGESLKISCKGSGYSFTSYWIGWVRQMPGKGLEWMGIIYPGDSDTRYSPSFQGQVTISADKSISTAYLQWSSLKASDTAMYYCARRKYSYTYDYFDYWGQGTLVTVSS VL: QTVVTQEPSFSVSPGGTVTLTCGLSSGSVSTSYYPSWYQQTPGQAPRTLIYGTNTRSSGVPDRFSGSILGNKAALTITGAQADDESDYYCVLYMGSGISYVFGTGTKVTVL
0.01	36600	–	–	–	–	–	–	Fab VH5-51_IGHD5-18*01>3_IGHJ4*01 G100K/G104T (H:KT) & V3-4_IGLJ1*01 (Fab, V domains shown, Fab format: CH1 with His6 and Flag tags, and lambda CL, from the vectors; also called KT double mutant; H:KT & L:wt) VH: EVQLVQSGAEVKKPGESLKISCKGSGYSFTSYWIGWVRQMPGKGLEWMGIIYPGDSDTRYSPSFQGQVTISADKSISTAYLQWSSLKASDTAMYYCARRKYSYTYDYFDYWGQGTLVTVSS VL: QTVVTQEPSFSVSPGGTVTLTCGLSSGSVSTSYYPSWYQQTPGQAPRTLIYSTNTRSSGVPDRFSGSILGNKAALTITGAQADDESDYYCVLYMGSGISYVFGTGTKVTVL
–	–	0.205	0.211	0.231	0.184	0.182	0.18	Fab VH5-51_IGHD5-18*01>3_IGHJ4*01 G100K/G104T (KT) & V3-4_IGLJ1*01 R56Y (Fab, V domains shown, Fab; also called H:KT & L:R56Y) VH: EVQLVQSGAEVKKPGESLKISCKGSGYSFTSYWIGWVRQMPGKGLEWMGIIYPGDSDTRYSPSFQGQVTISADKSISTAYLQWSSLKASDTAMYYCARRKYSYTYDYFDYWGQGTLVTVSS VL: QTVVTQEPSFSVSPGGTVTLTCGLSSGSVSTSYYPSWYQQTPGQAPRTLIYSTNTYSSGVPDRFSGSILGNKAALTITGAQADDESDYYCVLYMGSGISYVFGTGTKVTVL
0.01	42300	–	–	–	–	–	–	Fab VH5-51_IGHD5-18*01>3_IGHJ4*01 G100K/G104T (H:KT) & V3-4_IGLJ1*01 S96V (Fab, V domains shown, Fab format: CH1 with His6 and Flag tags, and lambda CL, from the vectors; also called G100K/G104T & S96V) VH: EVQLVQSGAEVKKPGESLKISCKGSGYSFTSYWIGWVRQMPGKGLEWMGIIYPGDSDTRYSPSFQGQVTISADKSISTAYLQWSSLKASDTAMYYCARRKYSYTYDYFDYWGQGTLVTVSS VL: QTVVTQEPSFSVSPGGTVTLTCGLSSGSVSTSYYPSWYQQTPGQAPRTLIYSTNTRSSGVPDRFSGSILGNKAALTITGAQADDESDYYCVLYMGVGISYVFGTGTKVTVL
0	1130	–	–	–	–	–	–	Fab VH5-51_IGHD5-18*01>3_IGHJ4*01 G100K/G104T (H:KT) & V3-4_IGLJ1*01 S96A (Fab, V domains shown, Fab format: CH1 with His6 and Flag tags, and lambda CL, from the vectors; also called G100K/G104T & S96A) VH: EVQLVQSGAEVKKPGESLKISCKGSGYSFTSYWIGWVRQMPGKGLEWMGIIYPGDSDTRYSPSFQGQVTISADKSISTAYLQWSSLKASDTAMYYCARRKYSYTYDYFDYWGQGTLVTVSS VL: QTVVTQEPSFSVSPGGTVTLTCGLSSGSVSTSYYPSWYQQTPGQAPRTLIYSTNTRSSGVPDRFSGSILGNKAALTITGAQADDESDYYCVLYMGAGISYVFGTGTKVTVL
